In patent US20210163599A1 (AVACTA LIFE SCIENCES, published 2021):
Positions count from the first letter of the chain named. In names and notes the source's numbering stands. Each block holds one binder with its values, some of them ahead of it.

Legend:
huPD-L1 on H441 cells = molecular target: T1, huPD-L1 on H441 cells (human, UniProt Q9NZQ7 19-290); assay: flow cytometry, % of positive H441 cells (human lung adenocarcinoma cells expressing PD-L1)
T1 construct: whole, on cells; also called H441 cells (expressing huPD-L1)
T1 sequence (Q9NZQ7 19-290): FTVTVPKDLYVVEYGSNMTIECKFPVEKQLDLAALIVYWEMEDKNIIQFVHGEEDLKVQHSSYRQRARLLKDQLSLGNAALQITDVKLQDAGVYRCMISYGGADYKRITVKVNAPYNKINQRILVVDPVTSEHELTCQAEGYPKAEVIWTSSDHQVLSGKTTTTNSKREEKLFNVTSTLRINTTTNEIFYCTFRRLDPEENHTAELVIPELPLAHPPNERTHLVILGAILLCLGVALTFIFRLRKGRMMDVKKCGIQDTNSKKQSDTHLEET
Description: The binding affinity of AVA04 Affimer polypeptides was determined using Flow cytometry on Human lung adenocarcinoma cell line. […] Cells were collected by centrifugation at 300 rpm for 5 min. The cells were resuspended in PBS and 50000 cells per wells were dispatched in a round bottom 96 well plate. Cells were washed with PBS. Affimer and controls were diluted in staining buffer (R&D) in duplicate and added on cells for staining for approximately 60 min at 4±1° c. Cells were washed and the secondary anti-Cystatin A (R&D) was diluted 1:15 in staining buffer (R&D) and added on cells for staining for approximately 40 min at 4±1° c. Cells were washed and the detection antibody A488 anti-Goat (Biolegend) was diluted 1:100 in staining buffer (R&D) and added on cells for staining for approximately 30 min at 4±1° c. Finally, cells were washed, live and dead cells were stained using L/D stain Zombie Aqua (Biolegend) diluted in staining buffer for 10 min at 4±1° c. Cells were washed and fixation buffer (R&D) was added to each well for 10 min at 4±1° C. then PBS with EDTA (Lonza) was added prior reading the plate on the flow cytometer (Guava 12 HT, Millipore). Dead cells were excluded and the fluorescent Green channel (488 nm/525/30) was acquired. Results were analyzed using Incyte and data were plotted using graphpad.

huPD-L1-Fc (R&D Systems) [1] = molecular target: T2, huPD-L1-Fc (R&D Systems) (human, UniProt Q9NZQ7 19-239); assay: competition ELISA: hu PD-1-Fc coated, binder preincubated with 30 ng/ml huPD-L1-Fc; blocked ligand PD-1
T2 construct: Bought from R&D Systems; also called hPDL1-Fc; human PD-L1 Fc antigen
T2 sequence (Q9NZQ7 19-239 limits assumed): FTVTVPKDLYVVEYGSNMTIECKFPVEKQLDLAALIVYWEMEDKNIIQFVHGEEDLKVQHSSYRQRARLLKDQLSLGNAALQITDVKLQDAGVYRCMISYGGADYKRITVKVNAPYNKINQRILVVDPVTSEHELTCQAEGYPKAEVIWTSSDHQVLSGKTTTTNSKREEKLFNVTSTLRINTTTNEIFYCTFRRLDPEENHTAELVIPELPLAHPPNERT
Description: Plates were washed 2 times with 150 μl of washing buffer (PBS, Tween 20 0.1%) with a plate washer and saturated with Casein 5% (Sigma) in PBS for 90 minutes at room temperature (25±1° C.) Plates were washed as described previously. […] The reaction was stopped using an acidic solution and plates were read at 450-630 nm. The IC 50 was then calculated using the interpolated non-linear four-parameters standard curve.

huPD-L1-Fc (R&D Systems) [2] = molecular target: T2, huPD-L1-Fc (R&D Systems); assay: Biacore T200, PD-L1-Fc immobilised on CM5, Affimer as analyte, 1:1 Langmuir fit
Description: The concentration titration of Affimer monomer was run as analyte with an association time of 150 seconds, followed by a dissociation time of 300 seconds at a flow rate of 30 μl/min. […] The data blank was subtracted and fit to a 1:1 Langmuir binding model (BIAcore evaluation software; GE) to calculate an apparent KD value.

huPD-L1-Fc (R&D Systems) [3] = molecular target: T2, huPD-L1-Fc (R&D Systems); assay: Biacore
huPD-L1-Fc (R&D Systems) [4] = molecular target: T2, huPD-L1-Fc (R&D Systems); assay: Biacore (target not named on the sheet; PD-L1 by the example)

B1: AVA04-228 (designed binder)
Affimer polypeptide: MIPRGLSEAKPATPEIQEIVDKVKPQLEEKTNETYGKLEAVQYKTQVLAKPYGPRDWDSTNYYIKVRAGDNKYMHLKVFNGPEPQLDTSPIADRVLTGYQVDKNKDDELTGFAAAGHHHHHH
notes: also called AVA04 clone 228
EC50 (huPD-L1 on H441 cells): 0.18 nM

B3: AVA04-211 (designed binder)
Affimer polypeptide: MIPRGLSEAKPATPEIQEIVDKVKPQLEEKTNETYGKLEAVQYKTQVLAKDWGPSNWWSTNYYIKVRAGDNKYMHLKVFNGPVDDKTLSKDADRVLTGYQVDKNKDDELTGFAAAGHHHHHH
notes: also called AVA04 clone 211
EC50 (huPD-L1 on H441 cells): 0.21 nM

B6: AVA04-141 Monomer His (designed binder)
Affimer polypeptide: MIPRGLSEAKPATPEIQEIVDKVKPQLEEKTNETYGKLEAVQYKTQVLAAAHFPEHFWSTNYYIKVRAGDNKYMHLKVFNGPQPADMSAEFADRVLTGYQVDKNKDDELTGFAAAGHHHHHH
notes: also called Affimer monomer; AVA04 clone 141
IC50 (huPD-L1-Fc (R&D Systems) [1]): 2.5 nM
Kd (huPD-L1-Fc (R&D Systems) [2]): 8.9 nM
koff (huPD-L1-Fc (R&D Systems) [2]): 0.0251 s⁻¹
kon (huPD-L1-Fc (R&D Systems) [2]): 2.81e+06 M⁻¹ s⁻¹

B7: AVA04-231 (designed binder)
Affimer polypeptide: MIPRGLSEAKPATPEIQEIVDKVKPQLEEKTNETYGKLEAVQYKTQVLANTWFPESFWSTNYYIKVRAGDNKYMHLKVFNGPDDNQERQEHADRVLTGYQVDKNKDDELTGFAAAGHHHHHH
notes: also called AVA04 clone 231
EC50 (huPD-L1 on H441 cells): 9.51 nM

B8: AVA04-261 BN (designed binder)
chain: MIPRGLSEAKPATPEIQEIVDKVKPQLEEKTNETYGKLEAVQYKTQVLAHAYGPRDWDSTNYYIKVRAGDNKYMHLKVFNGPPADHVLEEAADRVLTGYQVDKNKDDELTGFGGGGSGGGGSGGGGSGGGGSEPKSCDKTHTCPPCPHHHHHH
notes: Affimer - (G4S)4 - human IgG1 hinge - His; dimerises through the hinge cysteines
Kd (huPD-L1-Fc (R&D Systems) [3]): 0.0599 nM
koff (huPD-L1-Fc (R&D Systems) [4]): 0.000156 s⁻¹
kon (huPD-L1-Fc (R&D Systems) [4]): 2.61e+06 M⁻¹ s⁻¹

B9: AVA04-251 (designed binder)
chain: MIPRGLSEAKPATPEIQEIVDKVKPQLEEKTNETYGKLEAVQYKTQVLAREGRQDWVLSTNYYIKVRAGDNKYMHLKVFNGPWVPFPHQQLADRVLTGYQVDKNKDDELTGFAAAGHHHHHH
EC50 (huPD-L1 on H441 cells): 2.06 nM

Continued by falling EC50 (huPD-L1 on H441 cells), values first:

EC50 (huPD-L1 on H441 cells): 0.043 nM
B2: AVA04-261 (designed binder)
chain: MIPRGLSEAKPATPEIQEIVDKVKPQLEEKTNETYGKLEAVQYKTQVLAHAYGPRDWDSTNYYIKVRAGDNKYMHLKVFNGPPADHVLEEAADRVLTGYQVDKNKDDELTGFAAAGHHHHHH

EC50 (huPD-L1 on H441 cells): 0.04 nM
B4: AVA04-227 (designed binder)
Affimer polypeptide: B3 Affimer polypeptide with W52H, S55I, N56A, V83E, D85T, K86N, L88D, S89G, K90A, D91L
notes: also called AVA04 clone 227

EC50 (huPD-L1 on H441 cells): 0.01 nM
B5: AVA04-269 (designed binder)
Affimer polypeptide: MIPRGLSEAKPATPEIQEIVDKVKPQLEEKTNETYGKLEAVQYKTQVLAKEYGPEEWWSTNYYIKVRAGDNKYMHLKVFNGPGDYEQVLIHADRVLTGYQVDKNKDDELTGFAAAGHHHHHH
notes: also called AVA04 clone 269
